Experiment in all cases: NADPH consumption at A340, Lineweaver-Burk
Common to all, as to assay type: biochemical, Oryza sativa
Common to all, as to conditions: 300 μM NADPH, 100 mM sodium/potassium phosphate pH 6.25, 30 °C, substrate 5–50 μM

Substrate in series [1]: COc1cc(/C=C/C=O)cc(OC)c1O
From the text: (§1) NADPH consumption at A340, Lineweaver-Burk on OsCAD7

Substrate in series [2]: COc1cc(/C=C/C=O)ccc1O
Source text: as §1

Substrate in series [3]: O=C/C=C/c1ccc(O)cc1
Source text: as §1

Substrate in series [4]: O=CC=Cc1ccccc1
Source text: as §1

Substrate in series [5]: COc1cc(/C=C/C=O)cc(OC)c1O
From the text:
(§2) NADPH consumption at A340, Lineweaver-Burk on OsCAD6
The source holds these as a separate data set.

Substrate in series [6]: COc1cc(/C=C/C=O)ccc1O
Source text: as §2
This is another data set of the same source.

Substrate in series [7]: O=C/C=C/c1ccc(O)cc1
Source text: as §2
This is another data set of the same source.

Substrate in series [8]: O=CC=Cc1ccccc1
Source text: as §2
This is another data set of the same source.

Substrate in series [9]: COc1cc(/C=C/C=O)cc(OC)c1O
The text has this: (§3) NADPH consumption at A340, Lineweaver-Burk on OsCAD2
This is another data set of the same source.

Substrate in series [10]: COc1cc(/C=C/C=O)ccc1O
Source text: as §3
This is another data set of the same source.

Substrate in series [11]: O=C/C=C/c1ccc(O)cc1
Source text: as §3
The source holds these as a separate data set.

Substrate in series [12]: O=CC=Cc1ccccc1
Source text: as §3
This is another data set of the same source.

B1: OsCAD7 (Oryza sativa Japonica Group) (protein)
chain: MAPTTTATAAAEQAPPPQHTRKAVGLAAHDDSGHLTPIRISRRKTGDDDVAIKVLYCGICHSDLHTIKNEWRNAVYPVVAGHEITGVVTEVGKNVARFKAGDEVGVGCMVNTCGGCESCRDGCENYCSGGVVFTYNSVDRDGTRTYGGYSDAVVVSQRFVVRFPSSAGGGAGAALPLDSGAPLLCAGVTVYAPMRQHGLCEAGKHVGVVGLGGLGHVAVKFARAFGMRVTVISTSPVKRQEALERLGADGFIVSTNASEMKAAMGTMHGIINTASASTSMHSYLALLKPKGKMILVGLPEKPLQIPTFALVGGGKILAGSCMGSISETQEMIDFAAEHGVAADIELIGADEVNTAMERLAKGDVRYRFVVDIGNTLRSD
B1: in [1], the Km turned out to be 6.42 ± 1.77 µM, the Vmax amounted to 0.17 µmol/min/mg, the kcat was determined as 0.128 s⁻¹ and the kcat/Km was found to be 21200 M⁻¹ s⁻¹. For the same protein, in series [2], the Km worked out at 11.44 ± 2.16 µM, the Vmax turned out to be 0.38 µmol/min/mg, the kcat is 0.285 s⁻¹ and the kcat/Km came out at 25300 M⁻¹ s⁻¹. In series [3], the Km came to 2.66 ± 0.49 µM, the Vmax amounted to 0.09 µmol/min/mg, the kcat came out at 0.0692 s⁻¹ and the kcat/Km is 26300 M⁻¹ s⁻¹. In addition, in [4], the Michaelis-Menten constant (Km) was 14.11 ± 4.00 µM, the Vmax worked out at 0.25 µmol/min/mg, the kcat stood at 0.188 s⁻¹ and the kcat/Km is 13700 M⁻¹ s⁻¹.

B2: OsCAD6 (Oryza sativa Japonica Group) (protein)
chain: MEVTPNHTQTVSGWAAMDESGKIVPFVFKRRENGVDDVTIKVKYCGMCHTDLHFIHNDWGITMYPVVPGHEITGVVTKVGTNVAGFKVGDRVGVGCIAASCLDCEHCRRSEENYCDKVALTYNGIFWDGSITYGGYSGMLVAHKRFVVRIPDTLPLDAAAPLLCAGITVYSPMKQHGMLQADAAGRRLGVVGLGGLGHVAVKFGKAFGLHVTVISTSPAKEREARENLKADNFVVSTDQKQMQAMTRSLDYIIDTVAATHSLGPILELLKVNGKLVLVGAPEKPVELPSFPLIFGKRTVSGSMTGGMKETQEMMDICGEHNITCDIEIVSTDRINDALARLARNDVRYRFVINVGGDSKL
For the protein B2, the Km was determined as 10.72 ± 0.47 µM in series [5], 16.18 ± 4.49 µM in series [6], 10.88 ± 4.29 µM in series [7] and 28.25 ± 11.36 µM in series [8]. Also, the Vmax in [5] worked out at 0.103 µmol/min/mg; in series [6] it was 0.217 µmol/min/mg; in [7], 0.11 µmol/min/mg; in [8], 0.439 µmol/min/mg. The turnover number (kcat) in [5] worked out at 0.0733 s⁻¹; in series [6], 0.154 s⁻¹; in [7] it was 0.0757 s⁻¹; in series [8], 0.311 s⁻¹. In addition, the kcat/Km was 6830 M⁻¹ s⁻¹ in [5], 9670 M⁻¹ s⁻¹ in series [6], 7500 M⁻¹ s⁻¹ in series [7] and 11500 M⁻¹ s⁻¹ in series [8].

B3: OsCAD2 (Oryza sativa Japonica Group) (protein)
chain: MGSLAAEKTVTGWAARDASGHLTPYNYTLRKTGPEDVVVKVLYCGICHTDIHQAKNHLGASKYPMVPGHEVVGEVVEVGPEVTKYSAGDVVGVGVIVGCCRECHPCKANVEQYCNKRIWSYNDVYTDGRPTQGGFASAMVVDQKFVVKIPAGLAPEQAAPLLCAGLTVYSPLKHFGLMSPGLRGGVLGLGGVGHMGVKVAKSMGHHVTVISSSARKRGEAMDDLGADAYLVSSDAAAMAAAGDSLDYIIDTVPVHHPLEPYLALLKLDGKLILMGVINQPLSFISPMVMLGRKAITGSFIGSMAETEEVLNFCVDKGLTSQIEVVKMDYVNQALERLERNDVRYRFVVDVAGSNIDDADAPPA
On to B3, for which, in [9], the Km turned out to be 8.19 ± 2.62 µM, the Vmax came out at 52.9 µmol/min/mg, the kcat was determined as 41.2 s⁻¹ and the kcat/Km worked out at 5.35e+06 M⁻¹ s⁻¹. Also, in [10], the Km was determined as 4.37 ± 0.85 µM, the maximum rate (Vmax) came to 38.7 µmol/min/mg, the kcat turned out to be 30.1 s⁻¹ and the kcat/Km came to 7.15e+06 M⁻¹ s⁻¹. In series [11], the Km is 9.36 ± 2.50 µM, the Vmax turned out to be 17.8 µmol/min/mg, the kcat worked out at 13.9 s⁻¹ and the kcat/Km was determined as 1.54e+06 M⁻¹ s⁻¹. In addition, in series [12], the Km came to 5.30 ± 3.42 µM, the Vmax came to 11.6 µmol/min/mg, the kcat was found to be 9.05 s⁻¹ and the kcat/Km amounted to 2.37e+06 M⁻¹ s⁻¹.
